Positions count from the first letter of the chain named. Numbers in names are those of the source.
T1: human FcγRIIb (human, UniProt P31994 43-217, limits assumed)
T1 construct: also called FcgRIIb
T1 sequence: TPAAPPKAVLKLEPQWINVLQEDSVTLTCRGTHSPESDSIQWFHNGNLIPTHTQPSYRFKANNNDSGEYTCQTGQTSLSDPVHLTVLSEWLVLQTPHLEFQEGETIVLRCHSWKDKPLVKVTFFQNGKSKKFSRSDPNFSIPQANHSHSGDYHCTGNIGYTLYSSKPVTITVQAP

T2: human FcγRIIa(R) (human, UniProt P12318 36-217)
T2 construct: also called FcgRIIaR; FcγRIIa type R
T2 chain: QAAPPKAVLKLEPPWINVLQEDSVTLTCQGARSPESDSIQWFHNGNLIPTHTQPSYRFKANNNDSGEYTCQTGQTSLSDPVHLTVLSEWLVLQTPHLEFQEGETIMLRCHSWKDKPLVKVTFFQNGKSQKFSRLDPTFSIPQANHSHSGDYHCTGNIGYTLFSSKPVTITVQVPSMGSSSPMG

T3: human FcγRIIa(H) (human, UniProt P12318 36-217)
T3 construct: also called FcgRIIaH; FcγRIIa type H
T3 sequence: T2 chain with R133H

B1: GpH7-B3 variant E269K/GpL16-k0 (antibody, human IgG1)
heavy: not shown
light: DIVMTQSPLSLPVTPGEPASISCQASESLVHSNRNTYLHWYLQKPGQSPQLLIYKVSNRFSGVPDRFSGSGSGTDFTLKISRVEAEDVGVYYCSQNTHVPPTFGQGTKVEIE
notes: copies: 2 + 2
B2: GpH7-B3 variant D265Q/GpL16-k0 (antibody, human IgG1)
heavy: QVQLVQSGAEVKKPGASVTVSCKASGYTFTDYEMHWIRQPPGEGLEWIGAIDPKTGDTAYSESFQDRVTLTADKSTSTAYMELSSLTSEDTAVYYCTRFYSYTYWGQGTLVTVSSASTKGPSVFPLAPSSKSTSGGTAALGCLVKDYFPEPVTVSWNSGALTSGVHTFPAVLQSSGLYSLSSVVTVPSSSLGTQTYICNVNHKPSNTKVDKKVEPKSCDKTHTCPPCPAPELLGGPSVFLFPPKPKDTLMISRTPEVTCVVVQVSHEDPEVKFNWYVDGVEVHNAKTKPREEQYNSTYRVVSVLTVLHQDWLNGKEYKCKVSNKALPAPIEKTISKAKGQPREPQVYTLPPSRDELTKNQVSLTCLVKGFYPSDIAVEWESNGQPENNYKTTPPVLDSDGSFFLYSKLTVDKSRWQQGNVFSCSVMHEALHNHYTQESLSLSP
light: B1 light
notes: copies: 2 + 2
B3: GpH7-B3 variant D265H/GpL16-k0 (antibody, human IgG1)
heavy: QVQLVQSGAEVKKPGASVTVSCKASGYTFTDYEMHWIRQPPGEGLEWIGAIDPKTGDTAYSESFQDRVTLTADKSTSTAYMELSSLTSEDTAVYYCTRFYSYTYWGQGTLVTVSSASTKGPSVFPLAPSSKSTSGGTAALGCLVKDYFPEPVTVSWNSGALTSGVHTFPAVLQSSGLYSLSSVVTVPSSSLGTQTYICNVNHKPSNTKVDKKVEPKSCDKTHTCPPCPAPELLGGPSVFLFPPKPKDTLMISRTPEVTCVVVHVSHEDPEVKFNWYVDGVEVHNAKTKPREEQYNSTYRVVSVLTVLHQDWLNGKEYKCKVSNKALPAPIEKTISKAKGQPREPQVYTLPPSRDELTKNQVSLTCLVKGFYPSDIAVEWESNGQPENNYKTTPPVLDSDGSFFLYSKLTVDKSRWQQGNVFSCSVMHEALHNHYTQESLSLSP
light: B1 light
notes: copies: 2 + 2
B4: GpH7-B3 variant D265F/GpL16-k0 (antibody, human IgG1)
heavy: not shown
light: B1 light
notes: copies: 2 + 2
B5: GpH7-B3 variant D270R/GpL16-k0 (antibody, human IgG1)
heavy: not shown
light: B1 light
notes: copies: 2 + 2
B6: GpH7-B3 variant D265W/GpL16-k0 (antibody, human IgG1)
heavy: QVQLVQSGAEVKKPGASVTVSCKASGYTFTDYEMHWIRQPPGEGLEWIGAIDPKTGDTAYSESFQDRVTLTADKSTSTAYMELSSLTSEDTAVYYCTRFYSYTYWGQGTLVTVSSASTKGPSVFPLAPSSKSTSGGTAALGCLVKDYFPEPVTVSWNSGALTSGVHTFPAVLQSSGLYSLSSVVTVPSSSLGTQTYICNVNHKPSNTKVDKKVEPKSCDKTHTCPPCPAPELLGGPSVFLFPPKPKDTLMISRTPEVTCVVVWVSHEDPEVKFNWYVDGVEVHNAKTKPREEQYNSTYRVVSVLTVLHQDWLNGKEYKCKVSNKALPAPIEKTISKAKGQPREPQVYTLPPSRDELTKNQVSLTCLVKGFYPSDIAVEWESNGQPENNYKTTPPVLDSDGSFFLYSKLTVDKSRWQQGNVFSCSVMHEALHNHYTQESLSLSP
light: B1 light
notes: copies: 2 + 2
B7: GpH7-B3 variant D270P/GpL16-k0 (antibody, human IgG1)
heavy: not shown
light: B1 light
notes: copies: 2 + 2
B8: GpH7-B3 variant D265I/GpL16-k0 (antibody, human IgG1)
heavy: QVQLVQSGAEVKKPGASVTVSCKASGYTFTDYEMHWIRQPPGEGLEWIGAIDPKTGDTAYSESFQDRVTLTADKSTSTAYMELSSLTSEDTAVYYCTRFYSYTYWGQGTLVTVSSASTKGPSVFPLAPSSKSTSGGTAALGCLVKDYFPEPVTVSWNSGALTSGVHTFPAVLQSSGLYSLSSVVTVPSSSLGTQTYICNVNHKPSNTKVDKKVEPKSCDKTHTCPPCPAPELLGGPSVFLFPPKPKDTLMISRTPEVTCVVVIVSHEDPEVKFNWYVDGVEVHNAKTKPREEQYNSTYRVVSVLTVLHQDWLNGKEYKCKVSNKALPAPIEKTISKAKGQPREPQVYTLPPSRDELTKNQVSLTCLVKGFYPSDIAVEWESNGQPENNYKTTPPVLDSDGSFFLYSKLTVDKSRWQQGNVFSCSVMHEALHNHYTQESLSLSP
light: B1 light
notes: copies: 2 + 2
B9: GpH7-B3 variant D265K/GpL16-k0 (antibody, human IgG1)
heavy: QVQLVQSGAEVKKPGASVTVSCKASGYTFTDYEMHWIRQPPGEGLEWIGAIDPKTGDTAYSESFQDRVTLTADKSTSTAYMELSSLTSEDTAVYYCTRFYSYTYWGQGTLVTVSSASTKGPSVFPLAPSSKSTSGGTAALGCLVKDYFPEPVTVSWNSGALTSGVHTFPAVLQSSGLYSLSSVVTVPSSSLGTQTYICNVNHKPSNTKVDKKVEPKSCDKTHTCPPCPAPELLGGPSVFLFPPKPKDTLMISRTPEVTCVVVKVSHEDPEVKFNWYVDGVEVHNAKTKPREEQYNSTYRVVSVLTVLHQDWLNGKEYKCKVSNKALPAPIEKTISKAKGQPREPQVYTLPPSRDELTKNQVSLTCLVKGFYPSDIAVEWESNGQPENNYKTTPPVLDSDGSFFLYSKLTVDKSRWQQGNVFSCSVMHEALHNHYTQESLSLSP
light: B1 light
notes: copies: 2 + 2
B10: GpH7-B3 variant D265M/GpL16-k0 (antibody, human IgG1)
heavy: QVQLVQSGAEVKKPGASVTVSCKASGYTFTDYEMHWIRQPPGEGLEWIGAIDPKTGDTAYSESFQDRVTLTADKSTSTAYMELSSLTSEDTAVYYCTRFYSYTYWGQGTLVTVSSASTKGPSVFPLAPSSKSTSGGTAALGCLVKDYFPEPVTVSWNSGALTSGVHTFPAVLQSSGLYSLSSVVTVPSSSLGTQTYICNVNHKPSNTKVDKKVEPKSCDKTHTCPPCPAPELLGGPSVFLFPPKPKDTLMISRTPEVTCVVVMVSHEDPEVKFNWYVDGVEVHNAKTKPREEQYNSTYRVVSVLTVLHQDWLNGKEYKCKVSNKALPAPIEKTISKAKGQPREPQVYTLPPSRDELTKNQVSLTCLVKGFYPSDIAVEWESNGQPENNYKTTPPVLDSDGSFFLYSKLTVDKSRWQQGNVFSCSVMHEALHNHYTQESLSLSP
light: B1 light
notes: copies: 2 + 2
B11: GpH7-B3 variant D265T/GpL16-k0 (antibody, human IgG1)
heavy: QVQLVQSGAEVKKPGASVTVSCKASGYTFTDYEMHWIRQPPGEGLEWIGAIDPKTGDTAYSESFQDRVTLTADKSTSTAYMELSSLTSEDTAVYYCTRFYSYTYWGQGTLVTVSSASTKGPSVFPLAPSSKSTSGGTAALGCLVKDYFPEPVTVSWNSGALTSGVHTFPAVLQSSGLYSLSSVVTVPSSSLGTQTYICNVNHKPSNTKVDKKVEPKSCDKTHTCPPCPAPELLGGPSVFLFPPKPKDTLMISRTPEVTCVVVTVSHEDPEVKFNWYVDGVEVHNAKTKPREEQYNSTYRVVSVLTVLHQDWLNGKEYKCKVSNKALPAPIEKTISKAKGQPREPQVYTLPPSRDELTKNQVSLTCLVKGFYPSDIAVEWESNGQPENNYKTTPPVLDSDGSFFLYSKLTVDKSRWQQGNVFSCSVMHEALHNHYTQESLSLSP
light: B1 light
notes: copies: 2 + 2
B12: GpH7-B3 variant D265Y/GpL16-k0 (antibody, human IgG1)
heavy: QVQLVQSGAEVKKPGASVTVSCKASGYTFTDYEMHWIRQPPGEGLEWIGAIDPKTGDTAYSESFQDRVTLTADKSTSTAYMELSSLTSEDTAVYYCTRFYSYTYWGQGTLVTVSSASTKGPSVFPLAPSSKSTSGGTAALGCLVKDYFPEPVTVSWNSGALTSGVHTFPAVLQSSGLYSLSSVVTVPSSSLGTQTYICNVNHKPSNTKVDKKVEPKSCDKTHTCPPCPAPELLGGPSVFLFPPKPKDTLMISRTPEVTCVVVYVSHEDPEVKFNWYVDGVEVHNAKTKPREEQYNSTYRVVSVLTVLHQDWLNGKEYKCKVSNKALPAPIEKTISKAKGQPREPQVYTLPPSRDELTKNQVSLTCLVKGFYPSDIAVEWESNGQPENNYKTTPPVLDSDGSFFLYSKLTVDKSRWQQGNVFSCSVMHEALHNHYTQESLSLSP
light: B1 light
notes: copies: 2 + 2
B13: GpH7-B3 variant D265A/GpL16-k0 (antibody, human IgG1)
heavy: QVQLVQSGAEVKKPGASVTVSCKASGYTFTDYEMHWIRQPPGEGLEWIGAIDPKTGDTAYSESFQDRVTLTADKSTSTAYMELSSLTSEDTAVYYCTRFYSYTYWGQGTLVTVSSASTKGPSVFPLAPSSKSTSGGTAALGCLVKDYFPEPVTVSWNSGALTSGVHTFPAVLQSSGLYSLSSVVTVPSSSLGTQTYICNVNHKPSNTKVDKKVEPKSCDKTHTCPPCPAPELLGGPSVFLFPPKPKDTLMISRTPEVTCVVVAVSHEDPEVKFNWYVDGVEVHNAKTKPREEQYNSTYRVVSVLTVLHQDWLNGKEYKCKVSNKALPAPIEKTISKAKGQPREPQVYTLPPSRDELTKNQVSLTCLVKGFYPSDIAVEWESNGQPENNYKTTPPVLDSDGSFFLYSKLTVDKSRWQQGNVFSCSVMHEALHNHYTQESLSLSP
light: B1 light
notes: copies: 2 + 2
B14: GpH7-B3 variant D265N/GpL16-k0 (antibody, human IgG1)
heavy: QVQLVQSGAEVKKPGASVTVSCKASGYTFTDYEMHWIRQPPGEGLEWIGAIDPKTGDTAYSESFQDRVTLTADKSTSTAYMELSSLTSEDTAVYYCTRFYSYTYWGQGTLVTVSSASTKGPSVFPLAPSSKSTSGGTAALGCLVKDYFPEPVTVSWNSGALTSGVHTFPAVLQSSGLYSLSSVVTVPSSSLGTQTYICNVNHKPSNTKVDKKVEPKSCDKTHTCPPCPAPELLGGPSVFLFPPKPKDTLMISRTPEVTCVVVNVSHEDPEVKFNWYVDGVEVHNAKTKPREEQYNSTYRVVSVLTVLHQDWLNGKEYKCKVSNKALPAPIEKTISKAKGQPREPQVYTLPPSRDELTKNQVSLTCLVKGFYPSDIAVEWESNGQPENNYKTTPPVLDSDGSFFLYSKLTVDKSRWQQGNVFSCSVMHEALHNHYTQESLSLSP
light: B1 light
notes: copies: 2 + 2

biological target: T1, human FcγRIIb; experiment: SPR (Biacore);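 further: antibody variants captured on sensor chip, Fcγ receptor flowed over at 25 °C, bound receptor normalized to amount of captured antibody, expressed relative to reference antibody set as 100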

Row | relative binding activity | Binder
1 | 1 % of GpH7-B3/GpL16-k0 | B1
2 | 4 % of GpH7-B3/GpL16-k0 | B2
3 | 11 % of GpH7-B3/GpL16-k0 | B3
4 | -2 % of GpH7-B3/GpL16-k0 | B4
5 | -5 % of GpH7-B3/GpL16-k0 | B5
6 | -2 % of GpH7-B3/GpL16-k0 | B6
7 | -1 % of GpH7-B3/GpL16-k0 | B7
8 | -2 % of GpH7-B3/GpL16-k0 | B8
9 | 0 % of GpH7-B3/GpL16-k0 | B9
10 | -2 % of GpH7-B3/GpL16-k0 | B10
11 | 1 % of GpH7-B3/GpL16-k0 | B11
12 | -2 % of GpH7-B3/GpL16-k0 | B12
13 | 1 % of GpH7-B3/GpL16-k0 | B13
14 | -2 % of GpH7-B3/GpL16-k0 | B14

Biological target: T2, human FcγRIIa(R)
Experiment: SPR (Biacore);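 further: antibody variants captured on sensor chip, Fcγ receptor flowed over at 25 °C, bound receptor normalized to amount of captured antibody, expressed relative to reference antibody set as 100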

Row | relative binding activity | Binder
15 | 4 % of GpH7-B3/GpL16-k0 | B1
16 | 13 % of GpH7-B3/GpL16-k0 | B2
17 | 26 % of GpH7-B3/GpL16-k0 | B3
18 | -1 % of GpH7-B3/GpL16-k0 | B4
19 | -5 % of GpH7-B3/GpL16-k0 | B5
20 | -1 % of GpH7-B3/GpL16-k0 | B6
21 | -3 % of GpH7-B3/GpL16-k0 | B7
22 | -1 % of GpH7-B3/GpL16-k0 | B8
23 | -1 % of GpH7-B3/GpL16-k0 | B9
24 | -1 % of GpH7-B3/GpL16-k0 | B10
25 | 2 % of GpH7-B3/GpL16-k0 | B11
26 | -1 % of GpH7-B3/GpL16-k0 | B12
27 | 3 % of GpH7-B3/GpL16-k0 | B13
28 | -1 % of GpH7-B3/GpL16-k0 | B14

biological target: T4, human FcγRIa (human, UniProt P12314 16-292, limits assumed); experiment: SPR (Biacore);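 further: antibody variants captured on sensor chip, Fcγ receptor flowed over at 25 °C, bound receptor normalized to amount of captured antibody, expressed relative to reference antibody set as 100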
T4 construct: also called FcgRIa; FcγRI (CD64)
T4 sequence (P12314 16-292 limits assumed): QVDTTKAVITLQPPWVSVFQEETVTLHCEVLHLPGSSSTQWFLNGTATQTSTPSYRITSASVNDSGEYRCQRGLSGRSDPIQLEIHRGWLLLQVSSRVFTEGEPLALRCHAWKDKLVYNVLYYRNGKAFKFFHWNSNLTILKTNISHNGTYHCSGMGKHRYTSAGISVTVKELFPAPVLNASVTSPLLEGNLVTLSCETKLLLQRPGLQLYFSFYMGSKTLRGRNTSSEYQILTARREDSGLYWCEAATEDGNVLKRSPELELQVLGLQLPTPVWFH

Row | relative binding activity | Binder
29 | 71 % of GpH7-B3/GpL16-k0 | B1
30 | 67 % of GpH7-B3/GpL16-k0 | B2
31 | 59 % of GpH7-B3/GpL16-k0 | B3
32 | 2 % of GpH7-B3/GpL16-k0 | B4
33 | 45 % of GpH7-B3/GpL16-k0 | B5
34 | 3 % of GpH7-B3/GpL16-k0 | B6
35 | 64 % of GpH7-B3/GpL16-k0 | B7
36 | 2 % of GpH7-B3/GpL16-k0 | B8
37 | 8 % of GpH7-B3/GpL16-k0 | B9
38 | 17 % of GpH7-B3/GpL16-k0 | B10
39 | 48 % of GpH7-B3/GpL16-k0 | B11
40 | 5 % of GpH7-B3/GpL16-k0 | B12
41 | 36 % of GpH7-B3/GpL16-k0 | B13
42 | 3 % of GpH7-B3/GpL16-k0 | B14

biological target: T3, human FcγRIIa(H); experiment: SPR (Biacore);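 further: antibody variants captured on sensor chip, Fcγ receptor flowed over at 25 °C, bound receptor normalized to amount of captured antibody, expressed relative to reference antibody set as 100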

Row | relative binding activity | Binder
43 | 22 % of GpH7-B3/GpL16-k0 | B1
44 | 13 % of GpH7-B3/GpL16-k0 | B2
45 | 18 % of GpH7-B3/GpL16-k0 | B3
46 | 0 % of GpH7-B3/GpL16-k0 | B4
47 | 11 % of GpH7-B3/GpL16-k0 | B5
48 | 0 % of GpH7-B3/GpL16-k0 | B6
49 | 0 % of GpH7-B3/GpL16-k0 | B7
50 | 0 % of GpH7-B3/GpL16-k0 | B8
51 | 0 % of GpH7-B3/GpL16-k0 | B9
52 | 0 % of GpH7-B3/GpL16-k0 | B10
53 | 5 % of GpH7-B3/GpL16-k0 | B11
54 | 0 % of GpH7-B3/GpL16-k0 | B12
55 | 5 % of GpH7-B3/GpL16-k0 | B13
56 | 0 % of GpH7-B3/GpL16-k0 | B14

biological target: T5, human FcγRIIIa(F) (human, UniProt P08637 17-208, limits assumed); experiment: SPR (Biacore)
T5 construct: also called FcgRIIIaF; allotype F158
T5 sequence (P08637 other isoform, or with tags, fused parts or gaps limits assumed): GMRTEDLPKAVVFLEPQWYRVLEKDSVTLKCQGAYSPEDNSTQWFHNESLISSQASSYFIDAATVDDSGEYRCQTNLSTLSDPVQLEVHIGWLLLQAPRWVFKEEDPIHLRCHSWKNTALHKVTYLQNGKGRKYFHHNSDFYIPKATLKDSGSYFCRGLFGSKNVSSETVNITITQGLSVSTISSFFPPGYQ

Row | relative binding activity | Binder
57 | 11 % of GpH7-B3/GpL16-k0 | B1
58 | -1 % of GpH7-B3/GpL16-k0 | B2
59 | 0 % of GpH7-B3/GpL16-k0 | B3
60 | -2 % of GpH7-B3/GpL16-k0 | B4
61 | 2 % of GpH7-B3/GpL16-k0 | B5
62 | -2 % of GpH7-B3/GpL16-k0 | B6
63 | -1 % of GpH7-B3/GpL16-k0 | B7
64 | -1 % of GpH7-B3/GpL16-k0 | B8
65 | -2 % of GpH7-B3/GpL16-k0 | B9
66 | -1 % of GpH7-B3/GpL16-k0 | B10
67 | -2 % of GpH7-B3/GpL16-k0 | B11
68 | -1 % of GpH7-B3/GpL16-k0 | B12
69 | -1 % of GpH7-B3/GpL16-k0 | B13
70 | -1 % of GpH7-B3/GpL16-k0 | B14
